We go through two substances from PMC10231827.

One assay has as its target hACE2-Fc (human) (UniProt Q9BYF1). In words: BLI; ACE2-Fc (10 ug/ml in kinetic buffer) captured on anti-human IgG Fc capture (AHC) biosensors, S2P glycoproteins as analyte; 30°C; association 300 s, dissociation 300 s; 1:1 binding model. For orientation: BLI is a label-free optical method that tracks binding on a fibre tip over time.
The target in assay [1] is S2P.OmiBA1-1208.H8 (SARS CoV-2 (Omicron BA.1)). The assay can be described thus: SEC.

pKd: −log10 of the molar value.

In general, pKd refers to −log10 of the Kd, conventionally taken in molar units. Low readings indicate a large Kd, high ones a small Kd. Usually koff stands for a measure of how fast the partners let go of each other. In general, kon refers to a measure of how fast the partners come together. On to S2P.OmiBA1-FHA (domain or fragment), for which, in the assay with hACE2-Fc (human), the pKd is 9.19, the Req came out at 0.35 nm, the koff was 0.00027 s⁻¹ and the association rate constant (kon) is 420000 M⁻¹ s⁻¹.
In the case of S2P.OmiBA1-1208.H8 (domain or fragment), the percent dissociated to a lower-order form after freeze-thaw in assay [1] was 15%.
